Data reported in the supplement of paper PMC10724198.
± gives the standard deviation of the averaged measurements.

Tested on: Saccharomyces cerevisiae
Test: protein stability index of tFT-peptide fusion (C-terminal peptide) (PSI (0-1 scale)); higher = more stable (slower turnover)
Conditions: genetic background: wild type; temperature: 30 C
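Further: PSI is a weighted mean of sequencing reads over stability bins, variants kept only with over 10 reads, mCherry proximal and sfGFP distal, peptide attached via GGGS linker.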

| Sequence | protein stability index |
| --- | --- |
| PPPPRPPRDPPR | 0.6629 ± 0.00098 |
| PPPPRPSPPPPS | 0.694 ± 0.028 |
| PPPPRPSSPLIL | 0.741 ± 0.021 |
| PPPPRSSPSPLP | 0.668 ± 0.077 |
| PPPPRVLSPAWS | 0.649 ± 0.072 |
| PPPPSLAPRSAL | 0.724 ± 0.048 |
| PPPPSLLPPSPS | 0.702 ± 0.068 |
| PPPPSLPPPLPL | 0.698 ± 0.022 |
| PPPPSLVPPSPL | 0.677 ± 0.063 |
| PPPPSPPSPPPP | 0.677 ± 0.0094 |
| PPPPSPRPRPAP | 0.657 ± 0.025 |
| PPPPSRLPYNPF | 0.662 ± 0.023 |
| PPPPTPLPPPHD | 0.652 ± 0.037 |
| PPPRPPLPPPPS | 0.727 ± 0.034 |
| PPPRPPSTTSPC | 0.7037 ± 0.0047 |
| PPPRPRPPPRPP | 0.581 ± 0.021 |
| PPPRPTHSRPGP | 0.64 ± 0.057 |
| PPPSHYHSQGHN | 0.686 ± 0.016 |
| PPPSPHRLDHLT | 0.704 ± 0.016 |
| PPPSPLPSPPPP | 0.5916 ± 0.0031 |
| PPPSPLPSPPPS | 0.746 ± 0.043 |
| PPPSPPLPIPPS | 0.697 ± 0.022 |
| PPPSPPSPLSPP | 0.675 ± 0.073 |
| PPPSSLVPFPLP | 0.7295 ± 0.0053 |
| PPPSSPTSGHSP | 0.771 ± 0.19 |
| PPPSTGGTRSNV | 0.6809 ± 0.0051 |

| Sequence | protein stability index |
| --- | --- |
| PPPTLSPPPPPL | 0.75 ± 0.034 |
| PPPTPHPLRRTP | 0.735 ± 0.069 |
| PPPTPSPPPLPP | 0.5748 ± 0.0057 |
| PPPTPTFPVPPH | 0.6021 ± 0.00058 |
| PPPTSPPRPASP | 0.697 ± 0.059 |
| PPPVAPRSPAHL | 0.713 ± 0.074 |
| PPPVPPLPSPLP | 0.649 ± 0.022 |
| PPPVPPPSPPPT | 0.641 ± 0.07 |
| PPPVSLFSPRSL | 0.781 ± 0.099 |
| PPQPTTPFPSPQ | 0.6788 ± 0.0063 |
| PPQRHTTPTSWG | 0.75862 ± 0.00034 |
| PPQTSVASRPTR | 0.695 ± 0.019 |
| PPRASPRMPAGC | 0.71506 ± 3.7e-05 |
| PPRGDPRAYLPP | 0.654 ± 0.011 |
| PPRNPAALPTPI | 0.718 ± 0.11 |
| PPRPLAPSPTLF | 0.679 ± 0.021 |
| PPRPLPPHPLLL | 0.681 ± 0.049 |
| PPRPLPPPRPSS | 0.691 ± 0.037 |
| PPRPLPPSLPPP | 0.695 ± 0.037 |
| PPRPPFPLPSPL | 0.703 ± 0.025 |
| PPRPPLHPLRLL | 0.6651 ± 0.0013 |
| PPRPPLPRPLPP | 0.657 ± 0.041 |
| PPRPPPNTPLPA | 0.725 ± 0.035 |
| PPRPPPPHHVPS | 0.677 ± 0.093 |
| PPRPPSSPLPPR | 0.733 ± 0.055 |
| PPRPSSRVPPPA | 0.65 ± 0.059 |

| Sequence | protein stability index |
| --- | --- |
| PPRPTPLPHAPP | 0.681 ± 0.02 |
| PPRPTPYPPLPP | 0.674 ± 0.062 |
| PPRRPSFAPPHL | 0.704 ± 0.014 |
| PPRSIPLPSPFH | 0.741 ± 0.016 |
| PPRSPHLPRSSL | 0.664 ± 0.069 |
| PPSHGYPPRLIP | 0.67842 ± 0.00022 |
| PPSHPLSPLSRL | 0.722 ± 0.067 |
| PPSLPPPIHLPL | 0.646 ± 0.011 |
| PPSLPPSPPLPP | 0.694 ± 0.011 |
| PPSLRFLLPPSA | 0.685 ± 0.058 |
| PPSPDATPLSHI | 0.678 ± 0.035 |
| PPSPHPSASTRP | 0.714 ± 0.04 |
| PPSPLPPTPSHS | 0.737 ± 0.076 |
| PPSPLPSPPPTF | 0.718 ± 0.025 |
| PPSPLYAFPYPL | 0.757 ± 0.0099 |
| PPSPPDSPPPAS | 0.665 ± 0.014 |
| PPSPPPPALSSS | 0.665 ± 0.056 |
| PPSPPPPLPLLP | 0.661 ± 0.077 |
| PPSPPPPLYPPA | 0.683 ± 0.038 |
| PPSPPPPPPFVP | 0.717 ± 0.033 |
| PPSPPPPPRFLP | 0.662 ± 0.041 |
| PPSPPPPPVVVP | 0.606 ± 0.11 |
| PPSPSLRSLPRP | 0.626 ± 0.064 |
| PPSPSPPPPPPT | 0.648 ± 0.04 |
| PPSRAPPAFPPL | 0.827 ± 0.2 |
| PPSVLLPLACPP | 0.677 ± 0.008 |

| Sequence | protein stability index |
| --- | --- |
| PPSVPAPPLPDP | 0.675 ± 0.038 |
| PPTAPTYRQSQP | 0.6754 ± 0.001 |
| PPTFPHLPHSWP | 0.792 ± 0.018 |
| PPTHPPPRLTPL | 0.707 ± 0.081 |
| PPTIHPSPAAPH | 0.623 ± 0.062 |
| PPTPGPPPLRYP | 0.705 ± 0.068 |
| PPTPLIPPLPLH | 0.716 ± 0.043 |
| PPTPPLPPRLPP | 0.686 ± 0.0098 |
| PPTPPSIPPSPP | 0.624 ± 0.064 |
| PPTPSPATSPPP | 0.713 ± 0.034 |
| PPTSPGPGSLYS | 0.693 ± 0.036 |
| PPTSPSNALPFA | 0.6666 ± 0.0032 |
| PPVLPPPAPLPP | 0.6548 ± 0.0047 |
| PPVRLLPCVCHF | 0.708 ± 0.049 |
| PPWLPAPFPLPD | 0.695 ± 0.045 |
| PPWPPYPRPPSS | 0.679 ± 0.053 |
| PPWTNALMILLD | 0.689 ± 0.039 |
| PPYPPTPHQTSH | 0.641 ± 0.034 |
| PPYSIPARAPHP | 0.7036 ± 0.0015 |
| PQFSPCRLALLS | 0.616 ± 0.018 |
| PQIRTPIPGSFS | 0.743 ± 0.074 |
| PQNTNNPENGHC | 0.667 ± 0.04 |
| PQPEAPSRPQLA | 0.746 ± 0.065 |
